{
  "source": "patent US20180022779A1",
  "about": "(UNIVERSITY OF VIRGINIA PATENT FOUNDATION, published 2018)",
  "biological_target": "T1, mouse eNOS (endogenous, thoracodorsal arteries) (mouse, UniProt P70313 2-1202)",
  "T1 sequence (looked up)": "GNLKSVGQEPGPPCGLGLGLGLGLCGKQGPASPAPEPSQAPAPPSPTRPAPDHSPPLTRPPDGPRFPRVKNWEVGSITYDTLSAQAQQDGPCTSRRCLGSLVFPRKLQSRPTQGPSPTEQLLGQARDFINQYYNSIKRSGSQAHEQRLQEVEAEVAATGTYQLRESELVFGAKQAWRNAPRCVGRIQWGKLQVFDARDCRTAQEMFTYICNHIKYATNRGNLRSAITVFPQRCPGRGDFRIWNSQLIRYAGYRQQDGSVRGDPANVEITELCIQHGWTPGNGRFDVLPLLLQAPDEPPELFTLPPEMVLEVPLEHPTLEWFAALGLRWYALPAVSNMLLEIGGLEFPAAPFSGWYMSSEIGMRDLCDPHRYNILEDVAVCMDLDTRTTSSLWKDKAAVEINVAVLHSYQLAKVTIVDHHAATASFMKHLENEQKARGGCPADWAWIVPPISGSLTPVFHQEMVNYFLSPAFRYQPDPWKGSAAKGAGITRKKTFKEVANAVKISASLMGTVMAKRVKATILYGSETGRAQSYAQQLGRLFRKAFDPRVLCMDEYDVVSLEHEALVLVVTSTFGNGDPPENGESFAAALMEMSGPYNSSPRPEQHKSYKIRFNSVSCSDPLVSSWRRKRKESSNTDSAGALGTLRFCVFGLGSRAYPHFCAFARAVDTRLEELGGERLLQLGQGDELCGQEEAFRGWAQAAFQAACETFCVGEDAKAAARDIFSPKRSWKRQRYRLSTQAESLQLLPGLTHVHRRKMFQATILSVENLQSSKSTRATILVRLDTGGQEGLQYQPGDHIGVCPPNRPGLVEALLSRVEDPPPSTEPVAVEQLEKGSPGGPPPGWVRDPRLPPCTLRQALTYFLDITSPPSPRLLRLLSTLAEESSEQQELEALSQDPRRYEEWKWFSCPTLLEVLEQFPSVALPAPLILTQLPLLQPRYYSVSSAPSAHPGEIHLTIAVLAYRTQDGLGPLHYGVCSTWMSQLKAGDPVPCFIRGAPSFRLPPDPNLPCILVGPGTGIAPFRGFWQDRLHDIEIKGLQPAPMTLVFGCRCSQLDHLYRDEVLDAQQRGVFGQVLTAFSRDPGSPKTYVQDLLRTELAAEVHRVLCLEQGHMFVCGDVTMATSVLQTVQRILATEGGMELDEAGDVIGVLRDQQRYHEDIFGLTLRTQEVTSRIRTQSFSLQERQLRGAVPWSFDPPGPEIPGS",
  "assay": "cell-based or functional assay",
  "data": [
    {"binder": "YGRKKRRQRRRLSFPTTKTYF", "note": "[Hb α X peptide (HIV-tat tag linked to LSFPTTKTYF)]", "values": [
      {"measurement": "EC50 of phenylephrine ([PE] producing half of the maximum effect), thoracodorsal arteries treated with Hb α X", "result": 6.8, "unit": "µM"}
    ]}
  ]
}
